Reference: US20100129861

Target: 43S complexes containing 40S subunits and eIFs 2/3/1/1A

B1: DHX29 (purified native DHX29, DExH-box helicase) (protein)
chain: MGGKNKKHKAPAAAVVRAAVSASRAKSAEAGIAGEAQSKKPVSRPATAAAAAAGSREPRVKQGPKIYSFNSTNDSSGPANLDKSILKVVINNKLEQRIIGVINEHKKQNNDKGMISGRLTAKKLQDLYMALQAFSFKTKDIEDAMTNTLLYGGDLHSALDWLCLNLSDDALPEGFSQEFEEQQPKSRPKFQSPQIQATISPPLQPKTKTYEEDPKSKPKKEEKNMEVNMKEWILRYAEQQNEEEKNENSKSLEEEEKFDPNERYLHLAAKLLDAKEQAATFKLEKNKQGQKEAQEKIRKFQREMETLEDHPVFNPAMKISHQQNERKKPPVATEGESALNFNLFEKSAAATEEEKDKKKEPHDVRNFDYTARSWTGKSPKQFLIDWVRKNLPKSPNPSFEKVPVGRYWKCRVRVIKSEDDVLVVCPTILTEDGMQAQHLGATLALYRLVKGQSVHQLLPPTYRDVWLEWSDAEKKREELNKMETNKPRDLFIAKLLNKLKQQQQQQQQHSENKRENSEDPEESWENLVSDEDFSALSLESANVEDLEPVRNLFRKLQSTPKYQKLLKERQQLPVFKHRDSIVETLKRHRVVVVAGETGSGKSTQVPHFLLEDLLLNEWEASKCNIVCTQPRRISAVSLANRVCDELGCENGPGGRNSLCGYQIRMESRACESTRLLYCTTGVLLRKLQEDGLLSNVSHVIVDEVHERSVQSDFLLIILKEILQKRSDLHLILMSATVDSEKFSTYFTHCPILRISGRSYPVEVFHLEDIIEETGFVLEKDSEYCQKFLEEEEEVTINVTSKAGGIKKYQEYIPVQTGAHADLNPFYQKYSSRTQHAILYMNPHKINLDLILELLAYLDKSPQFRNIEGAVLIFLPGLAHIQQLYDLLSNDRRFYSERYKVIALHSILSTQDQAAAFTLPPPGVRKIVLATNIAETGITIPDVVFVIDTGRTKENKYHESSQMSSLVETFVSKASALQRQGRAGRVRDGFCFRMYTRERFEGFMDYSVPEILRVPLEELCLHIMKCNLGSPEDFLSKALDPPQLQVISNAMNLLRKIGACELNEPKLTPLGQHLAALPVNVKIGKMLIFGAIFGCLDPVATLAAVMTEKSPFTTPIGRKDEADLAKSALAMADSDHLTIYNAYLGWKKARQEGGYRSEITYCRRNFLNRTSLLTLEDVKQELIKLVKAAGFSSSTTSTSWEGNRASQTLSFQEIALLKAVLVAGLYDNVGKIIYTKSVDVTEKLACIVETAQGKAQVHPSSVNRDLQTHGWLLYQEKIRYARVYLRETTLITPFPVLLFGGDIEVQHRERLLSIDGWIYFQAPVKIAVIFKQLRVLIDSVLRKKLENPKMSLENDKILQIITELIKTENN
For B1, the NTPase activity was “DHX29's NTPase activity was strongly stimulated by 43S complexes, whereas stimulation by single-stranded RNA was low”.
